{
  "source": "paper PMC9445664",
  "about": "“A transcription factor TaMYB5 modulates leaf rolling in wheat”",
  "binders": {"B1": {"name": "3xAC probe (AC box of TaNRL1 promoter) (dsDNA)", "DNA 1": "AGTCCACCTAACGCCACCTAACGCCACCTAACGCTGTT", "DNA 2": "AACAGCGTTAGGTGGCGTTAGGTGGCGTTAGGTGGACT"}, "B2": {"name": "mutant 3xAC probe (dsDNA)", "DNA 1": "AGTCCAAATATTGCCAAATATTGCCAAATATTGCTGTT", "DNA 2": "AACAGCAATATTTGGCAATATTTGGCAATATTTGGACT"}},
  "key": {"TaMYB5 (GST-TaMYB5) [1]": {"biological_target": "T1, TaMYB5 (GST-TaMYB5) (Triticum aestivum, UniProt A0A3B6ELG7 1-265)", "T1 sequence (A0A3B6ELG7 entry or part of it)": "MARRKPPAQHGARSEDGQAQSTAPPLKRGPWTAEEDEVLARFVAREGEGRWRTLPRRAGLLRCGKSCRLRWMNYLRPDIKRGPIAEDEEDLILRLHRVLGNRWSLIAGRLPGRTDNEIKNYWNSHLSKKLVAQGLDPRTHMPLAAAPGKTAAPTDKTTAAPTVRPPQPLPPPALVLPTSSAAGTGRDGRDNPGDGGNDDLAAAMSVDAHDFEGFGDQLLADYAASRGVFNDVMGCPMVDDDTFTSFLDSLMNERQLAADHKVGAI", "experiment": "EMSA; unlabeled N1 competes; LightShift Chemiluminescent EMSA Kit (Thermo); buffer, salt, pH and temperature not stated", "conditions": "protein: recombinant; tags: N-terminal GST; label: biotin (labeled probe); blunt"}, "TaMYB5 (GST-TaMYB5) [2]": {"biological_target": "T1, TaMYB5 (GST-TaMYB5)", "experiment": "competition; EMSA; unlabeled mutant probe against biotin-labeled N1; LightShift Chemiluminescent EMSA Kit (Thermo); buffer, salt, pH and temperature not stated", "conditions": "protein: recombinant; tags: N-terminal GST; blunt"}},
  "data": [
    {"binder": "B1", "values": [
      {"measurement": "binding result", "setting": "TaMYB5 (GST-TaMYB5) [1]", "value": "binds"}
    ]},
    {"binder": "B2", "values": [
      {"measurement": "binding result", "setting": "TaMYB5 (GST-TaMYB5) [2]", "value": "no binding"}
    ]}
  ]
}
